Assay results as given in PMC7367873, “Dissecting the sequence determinants for dephosphorylation by the catalytic subunits of phosphatases PP1 and PP2A” (Nature Communications, 2020).

B1: LIG3 (protein, UniProt P49916 43-1009, looked up)
DNA ligase 3: LLHGHPLFLRRKPVLSFQGSHLRSRATYLVFLPGLHVGLCSGPCEMAEQRFCVDYAKRGTAGCKKCKEKIVKGVCRIGKVVPNPFSESGGDMKEWYHIKCMFEKLERARATTKKIEDLTELEGWEELEDNEKEQITQHIADLSSKAAGTPKKKAVVQAKLTTTGQVTSPVKGASFVTSTNPRKFSGFSAKPNNSGEAPSSPTPKRSLSSSKCDPRHKDCLLREFRKLCAMVADNPSYNTKTQIIQDFLRKGSAGDGFHGDVYLTVKLLLPGVIKTVYNLNDKQIVKLFSRIFNCNPDDMARDLEQGDVSETIRVFFEQSKSFPPAAKSLLTIQEVDEFLLRLSKLTKEDEQQQALQDIASRCTANDLKCIIRLIKHDLKMNSGAKHVLDALDPNAYEAFKASRNLQDVVERVLHNAQEVEKEPGQRRALSVQASLMTPVQPMLAEACKSVEYAMKKCPNGMFSEIKYDGERVQVHKNGDHFSYFSRSLKPVLPHKVAHFKDYIPQAFPGGHSMILDSEVLLIDNKTGKPLPFGTLGVHKKAAFQDANVCLFVFDCIYFNDVSLMDRPLCERRKFLHDNMVEIPNRIMFSEMKRVTKALDLADMITRVIQEGLEGLVLKDVKGTYEPGKRHWLKVKKDYLNEGAMADTADLVVLGAFYGQGSKGGMMSIFLMGCYDPGSQKWCTVTKCAGGHDDATLARLQNELDMVKISKDPSKIPSWLKVNKIYYPDFIVPDPKKAAVWEITGAEFSKSEAHTADGISIRFPRCTRIRDDKDWKSATNLPQLKELYQLSKEKADFTVVAGDEGSSTTGGSSEENKGPSGSAVSRKAPSKPSASTKKAEGKLSNSNSKDGNMQTAKPSAMKVGEKLATKSSPVKVGEKRKAADETLCQTKVLLDIFTGVRLYLPPSTPDFSRLRRYFVAFDGDLVQEFDMTSATHVLGSRDKNPAAQQVSPEWIWACIRKRRLVAPC
B2: GNB2 (protein, UniProt P62879 2-340, looked up)
Guanine nucleotide-binding …: SELEQLRQEAEQLRNQIRDARKACGDSTLTQITAGLDPVGRIQMRTRRTLRGHLAKIYAMHWGTDSRLLVSASQDGKLIIWDSYTTNKVHAIPLRSSWVMTCAYAPSGNFVACGGLDNICSIYSLKTREGNVRVSRELPGHTGYLSCCRFLDDNQIITSSGDTTCALWDIETGQQTVGFAGHSGDVMSLSLAPDGRTFVSGACDASIKLWDVRDSMCRQTFIGHESDINAVAFFPNGYAFTTGSDDATCRLFDLRADQELLMYSHDNIICGITSVAFSRSGRLLLAGYDDFNCNIWDAMKGDRAGVLAGHDNRVSCLGVTDDGMAVATGSWDSFLKIWN
B3: TMOD3 (protein, UniProt Q9NYL9 1-352, looked up)
Tropomodulin-3: MALPFRKDLEKYKDLDEDELLGNLSETELKQLETVLDDLDPENALLPAGFRQKNQTSKSTTGPFDREHLLSYLEKEALEHKDREDYVPYTGEKKGKIFIPKQKPVQTFTEEKVSLDPELEEALTSASDTELCDLAAILGMHNLITNTKFCNIMGSSNGVDQEHFSNVVKGEKILPVFDEPPNPTNVEESLKRTKENDAHLVEVNLNNIKNIPIPTLKDFAKALETNTHVKCFSLAATRSNDPVATAFAEMLKVNKTLKSLNVESNFITGVGILALIDALRDNETLAELKIDNQRQQLGTAVELEMAKMLEENTNILKFGYQFTQQGPRTRAANAITKNNDLVRKRRVEGDHQ
B4: TRIP13 (protein, UniProt Q15645 1-432, looked up)
Pachytene checkpoint protein …: MDEAVGDLKQALPCVAESPTVHVEVHQRGSSTAKKEDINLSVRKLLNRHNIVFGDYTWTEFDEPFLTRNVQSVSIIDTELKVKDSQPIDLSACTVALHIFQLNEDGPSSENLEEETENIIAANHWVLPAAEFHGLWDSLVYDVEVKSHLLDYVMTTLLFSDKNVNSNLITWNRVVLLHGPPGTGKTSLCKALAQKLTIRLSSRYRYGQLIEINSHSLFSKWFSESGKLVTKMFQKIQDLIDDKDALVFVLIDEVESLTAARNACRAGTEPSDAIRVVNAVLTQIDQIKRHSNVVILTTSNITEKIDVAFVDRADIKQYIGPPSAAAIFKIYLSCLEELMKCQIIYPRQQLLTLRELEMIGFIENNVSKLSLLLNDISRKSEGLSGRVLRKLPFLAHALYVQAPTVTIEGFLQALSLAVDKQFEERKKLAAYI
B5: MYBBP1A (protein, UniProt Q9BQG0 1-1328, looked up)
Myb-binding protein 1A: MESRDPAQPMSPGEATQSGARPADRYGLLKHSREFLDFFWDIAKPEQETRLAATEKLLEYLRGRPKGSEMKYALKRLITGLGVGRETARPCYSLALAQLLQSFEDLPLCSILQQIQEKYDLHQVKKAMLRPALFANLFGVLALFQSGRLVKDQEALMKSVKLLQALAQYQNHLQEQPRKALVDILSEVSKATLQEILPEVLKADLNIILSSPEQLELFLLAQQKVPSKLKKLVGSVNLFSDENVPRLVNVLKMAASSVKKDRKLPAIALDLLRLALKEDKFPRFWKEVVEQGLLKMQFWPASYLCFRLLGAALPLLTKEQLHLVMQGDVIRHYGEHVCTAKLPKQFKFAPEMDDYVGTFLEGCQDDPERQLAVLVAFSSVTNQGLPVTPTFWRVVRFLSPPALQGYVAWLRAMFLQPDLDSLVDFSTNNQKKAQDSSLHMPERAVFRLRKWIIFRLVSIVDSLHLEMEEALTEQVARFCLFHSFFVTKKPTSQIPETKHPFSFPLENQAREAVSSAFFSLLQTLSTQFKQAPGQTQGGQPWTYHLVQFADLLLNHSHNVTTVTPFTAQQRQAWDRMLQTLKELEAHSAEARAAAFQHLLLLVGIHLLKSPAESCDLLGDIQTCIRKSLGEKPRRSRTKTIDPQEPPWVEVLVEILLALLAQPSHLMRQVARSVFGHICSHLTPRALQLILDVLNPETSEDENDRVVVTDDSDERRLKGAEDKSEEGEDNRSSESEEESEGEESEEEERDGDVDQGFREQLMTVLQAGKALGGEDSENEEELGDEAMMALDQSLASLFAEQKLRIQARRDEKNKLQKEKALRRDFQIRVLDLVEVLVTKQPENALVLELLEPLLSIIRRSLRSSSSKQEQDLLHKTARIFTHHLCRARRYCHDLGERAGALHAQVERLVQQAGRQPDSPTALYHFNASLYLLRVLKGNTAEGCVHETQEKQKAGTDPSHMPTGPQAASCLDLNLVTRVYSTALSSFLTKRNSPLTVPMFLSLFSRHPVLCQSLLPILVQHITGPVRPRHQACLLLQKTLSMREVRSCFEDPEWKQLMGQVLAKVTENLRVLGEAQTKAQHQQALSSLELLNVLFRTCKHEKLTLDLTVLLGVLQGQQQSLQQGAHSTGSSRLHDLYWQAMKTLGVQRPKLEKKDAKEIPSATQSPISKKRKKKGFLPETKKRKKRKSEDGTPAEDGTPAATGGSQPPSMGRKKRNRTKAKVPAQANGTPTTKSPAPGAPTRSPSTPAKSPKLQKKNQKPSQVNGAPGSPTEPAGQKQHQKALPKKGVLGKSPLSALARKKARLSLVIRSPSLLQSGAKKKAQVRKAGKP
B6: EIF2AK2 (protein, UniProt P19525 2-551, looked up)
Interferon-induced, …: AGDLSAGFFMEELNTYRQKQGVVLKYQELPNSGPPHDRRFTFQVIIDGREFPEGEGRSKKEAKNAAAKLAVEILNKEKKAVSPLLLTTTNSSEGLSMGNYIGLINRIAQKKRLTVNYEQCASGVHGPEGFHYKCKMGQKEYSIGTGSTKQEAKQLAAKLAYLQILSEETSVKSDYLSSGSFATTCESQSNSLVTSTLASESSSEGDFSADTSEINSNSDSLNSSSLLMNGLRNNQRKAKRSLAPRFDLPDMKETKYTVDKRFGMDFKEIELIGSGGFGQVFKAKHRIDGKTYVIKRVKYNNEKAEREVKALAKLDHVNIVHYNGCWDGFDYDPETSDDSLESSDYDPENSKNSSRSKTKCLFIQMEFCDKGTLEQWIEKRRGEKLDKVLALELFEQITKGVDYIHSKKLIHRDLKPSNIFLVDTKQVKIGDFGLVTSLKNDGKRTRSKGTLRYMSPEQISSQDYGKEVDLYALGLILAELLHVCDTAFETSKFFTDLRDGIISDIFDKKEKTLLQKLLSKKPEDRPNTSEILRTLTVWKKSPEKNERHTC
B7: CSNK1A1 (protein, UniProt P48729 2-337, looked up)
Casein kinase I isoform alpha: ASSSGSKAEFIVGGKYKLVRKIGSGSFGDIYLAINITNGEEVAVKLESQKARHPQLLYESKLYKILQGGVGIPHIRWYGQEKDYNVLVMDLLGPSLEDLFNFCSRRFTMKTVLMLADQMISRIEYVHTKNFIHRDIKPDNFLMGIGRHCNKLFLIDFGLAKKYRDNRTRQHIPYREDKNLTGTARYASINAHLGIEQSRRDDMESLGYVLMYFNRTSLPWQGLKAATKKQKYEKISEKKMSTPVEVLCKGFPAEFAMYLNYCRGLRFEEAPDYMYLRQLFRILFRTLNHQYDYTFDWTMLKQKAAQQAASSSGQGQQAQTPTGKQTDKTKSNMKGF
B8: HNRNPA1;HNRNPA1L2 (protein, UniProt P09651 1-372, looked up)
Heterogeneous nuclear …: MSKSESPKEPEQLRKLFIGGLSFETTDESLRSHFEQWGTLTDCVVMRDPNTKRSRGFGFVTYATVEEVDAAMNARPHKVDGRVVEPKRAVSREDSQRPGAHLTVKKIFVGGIKEDTEEHHLRDYFEQYGKIEVIEIMTDRGSGKKRGFAFVTFDDHDSVDKIVIQKYHTVNGHNCEVRKALSKQEMASASSSQRGRSGSGNFGGGRGGGFGGNDNFGRGGNFSGRGGFGGSRGGGGYGGSGDGYNGFGNDGGYGGGGPGYSGGSRGYGSGGQGYGNQGSGYGGSGSYDSYNNGGGGGFGGGSGSNFGGGGSYNDFGNYNNQSSNFGPMKGGNFGGRSSGPYGGGGQYFAKPRNQGGYGGSSSSSSYGSGRRF
B9: PATL1 (protein, UniProt Q86TB9 1-770, looked up)
Protein PAT1 homolog 1: MFRYESLEDCPLDEDEDAFQGLGEEDEEIDQFNDDTFGSGAVDDDWQEAHERLAELEEKLPVAVNEQTGNGERDEMDLLGDHEENLAERLSKMVIENELEDPAIMRAVQTRPVLQPQPGSLNSSIWDGSEVLRRIRGPLLAQEMPTVSVLEYALPQRPPQGPEDDRDLSERALPRRSTSPIIGSPPVRAVPIGTPPKQMAVPSFTQQILCPKPVHVRPPMPPRYPAPYGERMSPNQLCSVPNSSLLGHPFPPSVPPVLSPLQRAQLLGGAQLQPGRMSPSQFARVPGFVGSPLAAMNPKLLQGRVGQMLPPAPGFRAFFSAPPSATPPPQQHPPGPGPHLQNLRSQAPMFRPDTTHLHPQHRRLLHQRQQQNRSQHRNLNGAGDRGSHRSSHQDHLRKDPYANLMLQREKDWVSKIQMMQLQSTDPYLDDFYYQNYFEKLEKLSAAEEIQGDGPKKERTKLITPQVAKLEHAYKPVQFEGSLGKLTVSSVNNPRKMIDAVVTSRSEDDETKEKQVRDKRRKTLVIIEKTYSLLLDVEDYERRYLLSLEEERPALMDDRKHKICSMYDNLRGKLPGQERPSDDHFVQIMCIRKGKRMVARILPFLSTEQAADILMTTARNLPFLIKKDAQDEVLPCLLSPFSLLLYHLPSVSITSLLRQLMNLPQSAATPALSNPHLTAVLQNKFGLSLLLILLSRGEDLQSSDPATESTQNNQWTEVMFMATRELLRIPQAALAKPISIPTNLVSLFSRYVDRQKLNLLETKLQLVQGIR

Assays:
GFP-14-3-3β = GFP-14-3-3β co-IP with LC-MS/MS, untreated GFP-14-3-3β versus GFP control (14-3-3 interactome); type: binding, human; settings: pairwise comparison untreated vs GFP
[1] = tested on: GFP-14-3-3β and its binding proteins; assay: GFP-14-3-3β co-IP with LC-MS/MS label-free quantification, untreated versus PP1c-treated; parameters: species or system human; settings: pairwise comparison PP1 vs untreated

Row | Molecule | Difference (log2), untreated vs GFP (GFP-14-3-3β) | Difference (log2), PP1 vs untreated [1]
1 | B1 | -0.6994 log2 | -0.06583 log2
2 | B2 | -1.0406 log2 | -0.1195 log2
3 | B3 | 0.4757 log2 | -0.1127 log2
4 | B4 | 0.9602 log2 | -0.09713 log2
5 | B5 | 2.289 log2 | -0.04518 log2
6 | B6 | 2.168 log2 | -0.09631 log2
7 | B7 | 0.6201 log2 | -0.08165 log2
8 | B8 | 0.6063 log2 | -0.1001 log2
9 | B9 | -0.4586 log2 | -0.05274 log2
